According to publication PMC5508132:
Non-standard residues stand in square brackets, D forms with d. Groups on a side chain read outwards from the residue. No end group written: not given here. Phe(4-N3) = [N-]=[N+]=Nc1ccc(C[C@H](N)C(=O)O)cc1; ssDNA = not defined here

Molecular target: integrin (of mouse fibroblasts, members not named for this experiment)
Conditions: scale: fold relative to the unmodified substrate

B1: RGDS P-DNA (F^azGGRGDS peptide conjugated to ssDNA) (peptide)
peptide: [Phe(4-N3)]([DIBAC-ssDNA])GGRGDS-NH2
modifications: reading uncertain; also: printed as F^az^GGRGDS
area of fibroblasts on RGDS surfaces after 24 h, relative to the unmodified substrate: 6
